Laboratory results reported in publication PMC12410180, “An anti-CEA affibody showing high-definition staining in human pancreatic cancer tissue sections and selective tumor targeting in vivo” (Translational Oncology, 2025).

Target: T1, human CEA His6-tag (Acro BioSystems, cat. hCE5-H5226) (Homo sapiens, UniProt P06731)
T1 construct: human carcinoembryonic antigen (CEA, CEACAM5), recombinant, His6-tagged; Glycosylated; also called CEACAM5; carcinoembryonic antigen-related adhesion molecule 5; source: bought: Acro BioSystems, produced in HEK293 cells
Experiment: SPR; MFE-23 scFv dilution series (1-100 nM, 3-fold) over a freshly immobilized surface with CEA (2500 RU); 25 °C, PBST pH 7.4; Langmuir 1:1 fit
Settings: both partners purified

T1 sequence (P06731 35-685): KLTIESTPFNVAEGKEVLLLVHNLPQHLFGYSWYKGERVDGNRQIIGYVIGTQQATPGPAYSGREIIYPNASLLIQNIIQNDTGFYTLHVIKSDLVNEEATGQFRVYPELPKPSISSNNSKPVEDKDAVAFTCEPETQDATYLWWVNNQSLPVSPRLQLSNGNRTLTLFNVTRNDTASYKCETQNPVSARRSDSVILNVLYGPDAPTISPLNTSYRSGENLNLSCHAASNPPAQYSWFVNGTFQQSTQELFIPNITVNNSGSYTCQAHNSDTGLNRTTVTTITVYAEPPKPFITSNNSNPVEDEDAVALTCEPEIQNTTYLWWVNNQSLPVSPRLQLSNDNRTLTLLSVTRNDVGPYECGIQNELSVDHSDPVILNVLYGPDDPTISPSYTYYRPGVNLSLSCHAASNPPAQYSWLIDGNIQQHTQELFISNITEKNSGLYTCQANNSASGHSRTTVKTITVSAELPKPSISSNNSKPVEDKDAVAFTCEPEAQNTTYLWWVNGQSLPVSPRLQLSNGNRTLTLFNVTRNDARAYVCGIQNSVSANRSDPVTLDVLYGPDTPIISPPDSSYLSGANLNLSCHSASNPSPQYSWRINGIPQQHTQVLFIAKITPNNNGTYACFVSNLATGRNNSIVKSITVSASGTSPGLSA

Kd: ~15 nM
B1: anti-CEA scFv fragment MFE-23 (scFv, V domains shown)
VH: QVKLQQSGAELVRSGTSVKLSCTASGFNIKDSYMHWLRQGPEQGLEWIGWIDPENGDTEYAPKFQGKATFTTDTSSNTAYLQLSSLTSEDTAVYYCNEGTPTGPYYFDYWGQGTTVTVSS
VL: ENVLTQSPAIMSASPGEKVTITCSASSSVSYMHWFQQKPGTSPKLWIYSTSNLASGVPARFSGSGSGTSYSLTISRMEAEDAATYYCQQRSSYPLTFGAGTKLELK
notes: Expressed from pET22b(+) with a PelB signal peptide; also called MFE-23 scFv; scFv MFE-23; source: E. coli BL21(DE3), periplasmic preparation, purified (IMAC)
